# In patent US7897569B2, “Use of HMGB fragments as anti-inflammatory agents” (The Feinstein Institute for Medical Research, priority 2001, dated 2011):
# B1: A box: Human HMGB1 mutant containing only the A box, SEQ ID NO:21 (A box SEQ ID NO:22) (protein)
# chain: MGKGDPKKPTGKMSSYAFFVQTCREEHKKKHPDASVNFSEFSKKCSERWKTMSAKEKGKFEDMAKADKARYEREMKTYIPPKGET
# B2: B box: Human HMGB1 mutant containing only the B box, SEQ ID NO:20 (protein)
# chain: FKDPNAPKRLPSAFFLFCSEYRPKIKGEHPGLSIGDVAKKLGEMWNNTAADDKQPYEKKAAKLKEKYEKDIAAY
# Legend:
# HMGB1 = experiment: A box antagonism of full length HMGB1 TNF release in RAW 264.7 macrophage cultures (ELISA); type: cell-based; conditions: co-addition with HMGB1, 16 hours, polymyxin B
# Method: Antagonism of full length HMGB1 activity by HMGB1 A box or GST tag (vector control) was also determined by measuring TNF release from RAW 264.7 macrophage cultures stimulated by co-addition of A box with full length HMGB1. RAW 264.7 macrophage cells (ATCC) were seeded into 24-well tissue culture plates and used at 90% confluence. The cells were treated with HMGB1, and/or A boxes as indicated for 16 hours in Optimum I medium (Life Technologies, Grand Island, N.Y.) in the presence of polymyxin B (100 units/ml, Sigma, St. Louis, Mo.) and supernatants were collected for TNF measurement (mouse ELISA kit from R&D System Inc, Minneapolis, Minn.). TNF-inducing activity was expressed as a percentage of the activity achieved with HMG-1 alone. FIG. 4B is a histogram of the effect of HMGB1, alone, A box alone, Vector (control) alone, HMGB1 in combination with A box, and HMGB1 in combination with vector.
# [1] = test system: Balb/c mice subjected to CLP; experiment: Cecal ligation and puncture (CLP) sepsis survival; type: in vivo
# Method: Cecal ligation and puncture (CLP) was performed as described previously (Fink and Heard, J. Surg. Res. 49:186-196, 1990; Wichmann et al., Crit. Care Med. 26:2078-2086, 1998; and Remick et al., Shock 4:89-95, 1995). Briefly, Balb/c mice were anesthetized with 75 mg/kg ketamine (Fort Dodge, Fort Dodge, Iowa) and 20 mg/kg of xylazine (Bohringer Ingelheim, St. Joseph, Mo.) intramuscularly. A midline incision was performed, and the cecum was isolated. A 6-0 prolene suture ligature was placed at a level 5.0 mm from the cecal tip away from the ileocecal valve.
# The ligated cecal stump was then punctured once with a 22-gauge needle, without direct extrusion of stool. The cecum was then placed back into its normal intra-abdominal position. The abdomen was then closed with a running suture of 6-0 prolene in two layers, peritoneum and fascia separately to prevent leakage of fluid. All animals were resuscitated with a normal saline solution administered sub-cutaneously at 20 ml/kg of body weight. Each mouse received a subcutaneous injection of imipenem (0.5 mg/mouse) (Primaxin, Merck & Co., Inc., West Point, Pa.) 30 minutes after the surgery. Animals were then allowed to recuperate. Mortality was recorded for up to 1 week after the procedure; survivors were followed for 2 weeks to ensure no late mortalities had occurred.
# To determine whether the HMGB1 A box can inhibit the lethality of HMGB1 during sepsis, mice were subjected to cecal perforation and treated by administration of A box beginning 24 hours after the onset of sepsis. CLP was performed on male Balb/c mice as described herein. Animals were randomly grouped, with 15-25 mice per group. The HMGB1 A box (60 or 600 μg/mouse each time) or vector (GST tag, 600 μg/mouse) alone was administered intraperitoneally twice daily for 3 days beginning 24 hours after CLP. Survival was monitored twice daily for up to 2 weeks to ensure no late death occurred. […]
# Passive immunization of critically ill septic mice with anti-HMGB1 antibodies was also assessed. […] Survival was monitored for 2 weeks. […]
# RAW 264.7 cells [2] = experiment: IL-1β release from RAW 264.7 cells (ELISA); type: cell-based, murine; conditions: B box 1 μg/ml or 10 μg/ml, 8 hours
# Method: (§1) To further examine the effect of HMGB1 B box on cytokine production, varying amounts of HMGB1 B box were evaluated for the effects on TNF, IL-1 B, and IL-6 production in murine macrophage-like RAW 264.7 cells. Conditioned media were harvested and measured for TNF, IL-1β and IL-6 levels. TNF levels were measured as described herein, and IL-1β and IL-6 levels were measured using the mouse IL-1β and IL-6 enzyme-linked immunosorbent assay (ELISA) kits (R&D System Inc., Minneapolis, Minn.) and N>5 for all experiments.
# RAW 264.7 cells [3] = experiment: IL-6 release from RAW 264.7 cells (ELISA); type: cell-based, murine; conditions: B box 0-10 μg/ml, 8 hours
# Method: as §1
# [4] = test system: D-galactosamine-sensitized Balb/c mice; experiment: Histology and serum cytokines in D-galactosamine-sensitized Balb/c mice; type: in vivo
# Method: To further assess the lethality of the HMGB1 B box protein in vivo the HMGB1 B box was again administered to D-galactosamine-sensitized Balb/c mice. Mice (3 per group) received D-gal (20 mg/mouse) plus B box or vector (1 mg/mouse) intraperitoneally for 7 hours and were then sacrificed by decapitation. Blood was collected, and organs (liver, heart, kidney and lung) were harvested and fixed in 10% formaldehyde. Tissue sections were prepared with hematoxylin and eosin staining for histological evaluation (Criterion Inc., Vancouver, Canada). The results of these studies are shown in FIGS. 7A-7J, which are scanned images of hematoxylin and eosin stained kidney sections (FIG. 7A), myocardium sections (FIG. 7C), lung sections (FIG. 7E), and liver sections (FIGS. 7G and 7I) obtained from an untreated mouse and kidney sections (FIG. 7B), myocardium sections (FIG. 7D), lung sections (FIG. 7F), and liver sections (FIGS. 7H and 7J) obtained from mice treated with the HMGB1 B box. […] In FIG. 7J, hepatocyte dropouts are seen surrounded by accumulated polymorphonuclear leukocytes. The arrows in FIG. 7J point to the sites of polymorphonuclear accumulation (dotted) or apoptotic hepatocytes (solid).
# [5] = 1 mg/mouse ip plus D-gal, 7 hours
Molecule,effect on TNF stimulating activity of full length HMGB1 (HMGB1),"clinical condition and outcome ([1]; 60 μg A box, CLP)","clinical condition ([1]; 600 μg/mouse A box, CLP)",survival ([1]; ip twice daily for 3 days beginning 24 hours after CLP) [%],IL-1β release (RAW 264.7 cells [2]),"IL-6 release, dose dependence (RAW 264.7 cells [3])","histology of heart [4, 5]","histology of kidneys and lungs [4, 5]","histology of liver [4, 5]","serum levels of IL-1β ([4]; B box in vivo, Balb/c mice)","serum levels of IL-6 ([4]; B box in vivo, Balb/c mice)"
B1,significantly attenuated,most died,"significantly more alert, active, and to resume feeding behavior",68,,,,,,,
B2,,,,,increased release of IL-1β,increased with increased amounts of B box,some ischemic changes and loss of cross striation in myocardial fibers,no abnormality,active hepatitis,15+3 pg/ml,315+93 pg/ml
